Values joined by “and” are separate entries in the source; they are usually repeats but may differ in a detail not shown here. Identical values can stand only once.

The values that follow come from article PMC3834833 (Nucleic Acids Research, 2013).

Data set [1] deals with the molecule itself. The data set can be described thus: glycerol gradient centrifugation; 10 ml linear 20-40% (v/v) glycerol gradient, 10 mM Tris-HCl pH 8.0, 100 mM NaCl, 1 mM EDTA, 2 mM DTT; SW-41 rotor, 38 000 rpm, 24 h, 8°C; fractions by SDS-PAGE and Coomassie; S value and molecular weight by comparison with protein markers; major oligomeric state.
The target of data set [2] is translin (wild type) (Homo sapiens, UniProt Q15631 1-228). The data set can be described thus: SAXS; translin octamer:RNA 1:1.5; Rg 47.2 vs 48.4 A free; SAXS: 10 mM Tris-HCl pH 8.0, 100 mM NaCl, 0.1 mM EDTA, 1 mM DTT, 5% glycerol; complex incubated 20 min at 25 C, measured at 10 C. The following applies: protein: recombinant; tags: N-terminal His6 (pQE-9); chain copies: 8; single strand.

B1: translin variant Nt-1 (I6A/F7A) (natural protein, human, UniProt Q15631 1-228, looked up)
chain: MSVSEAAVELQGFLAAEQDIREEIRKVVQSLEQTAREILTLLQGVHQGAGFQDIPKRCLKAREHFGTVKTHLTSLKTKFPAEQYYRFHEHWRFVLQRLVFLAAFVVYLETETLVTREAVTEILGIEPDREKGFHLDVEDYLSGVLILASELSRLSVNSVTAGDYSRPLHISTFINELDSGFRLLNLKNDSLRKRYDGLKYDVKKVEEVVYDLSIRGFNKETAAACVEK
notes: translin, human; mutant of the pQE-9 translin plasmid made by QuikChange site-directed mutagenesis; Same construct as m1 with the stated substitutions; also called N-terminal 1; source: E. coli, purified
Turning to B1, the “stoichiometry N” value in data set [1] was 4 subunits and 3.9 subunits.
With GUGUGUGUGUGUGUGUGUGUGUGU (ssRNA) [(GU)12], the binding result in data set [2] is on record as “binds”.

One may read the stoichiometry N as the number of molecules, sites or subunits per partner or assembly.
